± gives the uncertainty stated by the source.
test: abundance fitness (aPCA) (normalised: wild type 0, dead -1); higher = more abundant; growth selection in yeast, the domain comes from the species named; details: Homo sapiens

Substance | abundance fitness
BAG family molecular chaperone regulator 3 T47Q, O95817 | -0.741 ± 0.14
BAG family molecular chaperone regulator 3 T47R, O95817 | -0.728 ± 0.13
BAG family molecular chaperone regulator 3 T47V, O95817 | -0.302 ± 0.073
BAG family molecular chaperone regulator 3 T48I, O95817 | -0.354 ± 0.14
BAG family molecular chaperone regulator 3 V12A, O95817 | -0.03 ± 0.12
BAG family molecular chaperone regulator 3 V12D, O95817 | 0.092 ± 0.16
BAG family molecular chaperone regulator 3 V12E, O95817 | -0.594 ± 0.26
BAG family molecular chaperone regulator 3 V12F, O95817 | 0.051 ± 0.19
BAG family molecular chaperone regulator 3 V12G, O95817 | -0.443 ± 0.069
BAG family molecular chaperone regulator 3 V12H, O95817 | -0.48 ± 0.33
BAG family molecular chaperone regulator 3 V12I, O95817 | 0.446 ± 0.11
BAG family molecular chaperone regulator 3 V12L, O95817 | 0.208 ± 0.066
BAG family molecular chaperone regulator 3 V12M, O95817 | -0.393 ± 0.4
BAG family molecular chaperone regulator 3 V12N, O95817 | 0.139 ± 0.15
BAG family molecular chaperone regulator 3 V12Q, O95817 | 0.065 ± 0.16
BAG family molecular chaperone regulator 3 V12R, O95817 | -0.594 ± 0.21
BAG family molecular chaperone regulator 3 V12S, O95817 | -0.14 ± 0.15
BAG family molecular chaperone regulator 3 V12T, O95817 | -0.52 ± 0.43
BAG family molecular chaperone regulator 3 V12W, O95817 | -0.571 ± 0.32
BAG family molecular chaperone regulator 3 V12Y, O95817 | 0.199 ± 0.12
BAG family molecular chaperone regulator 3 V40A, O95817 | -0.556 ± 0.17
BAG family molecular chaperone regulator 3 V40C, O95817 | -0.269 ± 0.13
BAG family molecular chaperone regulator 3 V40D, O95817 | -0.808 ± 0.42

Substance | abundance fitness
BAG family molecular chaperone regulator 3 V40E, O95817 | -0.661 ± 0.18
BAG family molecular chaperone regulator 3 V40F, O95817 | -0.533 ± 0.4
BAG family molecular chaperone regulator 3 V40G, O95817 | -0.541 ± 0.087
BAG family molecular chaperone regulator 3 V40H, O95817 | -0.082 ± 0.17
BAG family molecular chaperone regulator 3 V40I, O95817 | -0.084 ± 0.069
BAG family molecular chaperone regulator 3 V40K, O95817 | -0.64 ± 0.098
BAG family molecular chaperone regulator 3 V40L, O95817 | -0.664 ± 0.084
BAG family molecular chaperone regulator 3 V40M, O95817 | 0.03 ± 0.16
BAG family molecular chaperone regulator 3 V40N, O95817 | 0.081 ± 0.23
BAG family molecular chaperone regulator 3 V40Q, O95817 | -0.642 ± 0.13
BAG family molecular chaperone regulator 3 V40R, O95817 | -0.637 ± 0.13
BAG family molecular chaperone regulator 3 V40S, O95817 | -0.745 ± 0.21
BAG family molecular chaperone regulator 3 V40T, O95817 | -0.959 ± 0.24
BAG family molecular chaperone regulator 3 V40W, O95817 | -0.468 ± 0.21
BAG family molecular chaperone regulator 3 V54A, O95817 | -0.719 ± 0.26
BAG family molecular chaperone regulator 3 V54C, O95817 | -0.022 ± 0.12
BAG family molecular chaperone regulator 3 V54D, O95817 | -0.08 ± 0.23
BAG family molecular chaperone regulator 3 V54E, O95817 | -0.591 ± 0.28
BAG family molecular chaperone regulator 3 V54F, O95817 | -0.375 ± 0.31
BAG family molecular chaperone regulator 3 V54G, O95817 | -0.07 ± 0.077
BAG family molecular chaperone regulator 3 V54I, O95817 | -0.335 ± 0.13
BAG family molecular chaperone regulator 3 V54K, O95817 | -0.008 ± 0.14
BAG family molecular chaperone regulator 3 V54L, O95817 | 0.369 ± 0.097

Substance | abundance fitness
BAG family molecular chaperone regulator 3 V54M, O95817 | 0.19 ± 0.22
BAG family molecular chaperone regulator 3 V54P, O95817 | -0.832 ± 0.42
BAG family molecular chaperone regulator 3 V54Q, O95817 | -0.084 ± 0.23
BAG family molecular chaperone regulator 3 V54R, O95817 | -0.083 ± 0.081
BAG family molecular chaperone regulator 3 V54S, O95817 | -0.13 ± 0.13
BAG family molecular chaperone regulator 3 V54W, O95817 | -0.961 ± 0.37
BAG family molecular chaperone regulator 3 V54Y, O95817 | -0.376 ± 0.25
BAG family molecular chaperone regulator 3 W26A, O95817 | -0.534 ± 0.092
BAG family molecular chaperone regulator 3 W26D, O95817 | -0.621 ± 0.37
BAG family molecular chaperone regulator 3 W26E, O95817 | -0.885 ± 0.25
BAG family molecular chaperone regulator 3 W26F, O95817 | 0.4 ± 0.21
BAG family molecular chaperone regulator 3 W26G, O95817 | -0.653 ± 0.17
BAG family molecular chaperone regulator 3 W26H, O95817 | -0.362 ± 0.069
BAG family molecular chaperone regulator 3 W26I, O95817 | -0.608 ± 0.34
BAG family molecular chaperone regulator 3 W26K, O95817 | 0.189 ± 0.081
BAG family molecular chaperone regulator 3 W26L, O95817 | -0.583 ± 0.14
BAG family molecular chaperone regulator 3 W26M, O95817 | -0.721 ± 0.2
BAG family molecular chaperone regulator 3 W26P, O95817 | -0.892 ± 0.39
BAG family molecular chaperone regulator 3 W26Q, O95817 | -0.641 ± 0.33
BAG family molecular chaperone regulator 3 W26R, O95817 | -0.228 ± 0.1
BAG family molecular chaperone regulator 3 W26S, O95817 | -0.381 ± 0.12
BAG family molecular chaperone regulator 3 W26T, O95817 | -0.335 ± 0.074
BAG family molecular chaperone regulator 3 W26V, O95817 | -0.467 ± 0.2

Substance | abundance fitness
BAG family molecular chaperone regulator 3 W26Y, O95817 | -0.326 ± 0.48
BAG family molecular chaperone regulator 3 W36A, O95817 | 0.844 ± 0.49
BAG family molecular chaperone regulator 3 W36E, O95817 | 1.43 ± 0.23
BAG family molecular chaperone regulator 3 W36G, O95817 | 0.48 ± 0.35
BAG family molecular chaperone regulator 3 W36K, O95817 | 1.09 ± 0.12
BAG family molecular chaperone regulator 3 W36R, O95817 | 0.623 ± 0.3
BAG family molecular chaperone regulator 3 W36S, O95817 | 1.56 ± 0.45
BAG family molecular chaperone regulator 3 W36T, O95817 | 1.25 ± 0.32
BAG family molecular chaperone regulator 3 W36V, O95817 | 1.02 ± 0.24
BAG family molecular chaperone regulator 3 W49C, O95817 | -0.634 ± 0.29
BAG family molecular chaperone regulator 3 W49D, O95817 | -0.572 ± 0.44
BAG family molecular chaperone regulator 3 W49E, O95817 | -0.221 ± 0.12
BAG family molecular chaperone regulator 3 W49F, O95817 | -0.227 ± 0.42
BAG family molecular chaperone regulator 3 W49G, O95817 | -0.748 ± 0.15
BAG family molecular chaperone regulator 3 W49L, O95817 | -0.588 ± 0.081
BAG family molecular chaperone regulator 3 W49M, O95817 | -0.21 ± 0.18
BAG family molecular chaperone regulator 3 W49N, O95817 | -0.204 ± 0.34
BAG family molecular chaperone regulator 3 W49P, O95817 | -0.72 ± 0.25
BAG family molecular chaperone regulator 3 W49Q, O95817 | -0.764 ± 0.42
BAG family molecular chaperone regulator 3 W49R, O95817 | -0.226 ± 0.1
BAG family molecular chaperone regulator 3 W49S, O95817 | -0.436 ± 0.12
BAG family molecular chaperone regulator 3 W49V, O95817 | -0.665 ± 0.13

From the Human Domainome abundance scans (Beltran et al. 2025)
